Article PMC12098889, “Structural insight into PIF6-mediated red light signal transduction of plant phytochrome B” (Cell Discovery, 2025)
Where a chain is given by its changes, count along the chain named. Names and notes keep the numbering of the source.

B1: phytochrome B (phyB), full length (1‒1172) (receptor, Arabidopsis, UniProt P14713 1-1172, looked up)
chain: MVSGVGGSGGGRGGGRGGEEEPSSSHTPNNRRGGEQAQSSGTKSLRPRSNTESMSKAIQQYTVDARLHAVFEQSGESGKSFDYSQSLKTTTYGSSVPEQQITAYLSRIQRGGYIQPFGCMIAVDESSFRIIGYSENAREMLGIMPQSVPTLEKPEILAMGTDVRSLFTSSSSILLERAFVAREITLLNPVWIHSKNTGKPFYAILHRIDVGVVIDLEPARTEDPALSIAGAVQSQKLAVRAISQLQALPGGDIKLLCDTVVESVRDLTGYDRVMVYKFHEDEHGEVVAESKRDDLEPYIGLHYPATDIPQASRFLFKQNRVRMIVDCNATPVLVVQDDRLTQSMCLVGSTLRAPHGCHSQYMANMGSIASLAMAVIINGNEDDGSNVASGRSSMRLWGLVVCHHTSSRCIPFPLRYACEFLMQAFGLQLNMELQLALQMSEKRVLRTQTLLCDMLLRDSPAGIVTQSPSIMDLVKCDGAAFLYHGKYYPLGVAPSEVQIKDVVEWLLANHADSTGLSTDSLGDAGYPGAAALGDAVCGMAVAYITKRDFLFWFRSHTAKEIKWGGAKHHPEDKDDGQRMHPRSSFQAFLEVVKSRSQPWETAEMDAIHSLQLILRDSFKESEAAMNSKVVDGVVQPCRDMAGEQGIDELGAVAREMVRLIETATVPIFAVDAGGCINGWNAKIAELTGLSVEEAMGKSLVSDLIYKENEATVNKLLSRALRGDEEKNVEVKLKTFSPELQGKAVFVVVNACSSKDYLNNIVGVCFVGQDVTSQKIVMDKFINIQGDYKAIVHSPNPLIPPIFAADENTCCLEWNMAMEKLTGWSRSEVIGKMIVGEVFGSCCMLKGPDALTKFMIVLHNAIGGQDTDKFPFPFFDRNGKFVQALLTANKRVSLEGKVIGAFCFLQIPSPELQQALAVQRRQDTECFTKAKELAYICQVIKNPLSGMRFANSLLEATDLNEDQKQLLETSVSCEKQISRIVGDMDLESIEDGSFVLKREEFFLGSVINAIVSQAMFLLRDRGLQLIRDIPEEIKSIEVFGDQIRIQQLLAEFLLSIIRYAPSQEWVEIHLSQLSKQMADGFAAIRTEFRMACPGEGLPPELVRDMFHSSRWTSPEGLGLSVCRKILKLMNGEVQYIRESERSYFLIILELPVPRKRPLSTASGSGDMMLMMPY
modifications: PΦB chromophore covalently linked to C357
notes: Arabidopsis phytochrome B, residues 1-1172, At2g18790; The same protein is Pr in the dark and Pfr after red light; The purification uses Ni-NTA, but no His tag on phyB is described; also called wild-type phyB; phyB-Pr (dark); source: E. coli BL21(DE3), co-expressed with HO1 and HY2, purified (Ni-NTA, anti-FLAG resin, Source Q); not shown: 3× Flag ([residues removed]), N-terminal, kept
B2: phyB^Y276H/T449C (with C925S, C936S, C972S and C1121S) (receptor, Arabidopsis, UniProt P14713 1-1172, looked up)
chain: B1 chain with Y276H, T449C, C925S, C936S, C972S, C1121S
modifications: PΦB chromophore covalently bound
notes: Arabidopsis phytochrome B (1-1172) with Y276H, T449C and C925S, C936S, C972S, C1121S; source: E. coli BL21(DE3), purified
B3: phyB^T449C (with C925S, C936S, C972S and C1121S) (receptor, Arabidopsis, UniProt P14713 1-1172, looked up)
chain: B1 chain with T449C, C925S, C936S, C972S, C1121S
modifications: PΦB chromophore covalently bound
notes: Arabidopsis phytochrome B (1-1172) with T449C for cross-linking and C925S, C936S, C972S, C1121S against nonspecific cross-linking; source: E. coli BL21(DE3), purified
B4: phyB^Y276H, full length (receptor, Arabidopsis, UniProt P14713 1-1172, looked up)
chain: B1 chain with Y276H
modifications: PΦB chromophore covalently bound
notes: Arabidopsis phytochrome B, residues 1-1172, At2g18790, with Y276H; also called constitutively active mutant phyB^Y276H; source: E. coli BL21(DE3), co-expressed with HO1 and HY2, purified (Ni-NTA, anti-FLAG resin, Source Q); not shown: 3× Flag ([residues removed]), N-terminal, kept
B5: PIF6α (1‒363) (natural protein, Arabidopsis, UniProt Q8L5W7 1-363, looked up)
chain: MMFLPTDYCCRLSDQEYMELVFENGQILAKGQRSNVSLHNQRTKSIMDLYEAEYNEDFMKSIIHGGGGAITNLGDTQVVPQSHVAAAHETNMLESNKHVDDSETLKASSSKRMMVDYHNRKKIKFIPPDEQSVVADRSFKLGFDTSSVGFTEDSEGSMYLSSSLDDESDDARPQVPARTRKALVKRKRNAEAYNSPERNQRNDINKKMRTLQNLLPNSHKDDNESMLDEAINYMTNLQLQVQMMTMGNRFVTPSMMMPLGPNYSQMGLAMGVGMQMGEQQFLPAHVLGAGLPGINDSADMLRFLNHPGLMPMQNSAPFIPTENCSPQSVPPSCAAFPNQIPNPNSLSNLDGATLHKKSRKTNR
notes: Modified pCold TF vector; purified on Ni resin, so a His tag is likely present but is not described; also called full-length PIF6α; source: E. coli BL21(DE3), purified (Ni-NTA, Strep-Tactin, Source Q); not shown: StrepII, C-terminal, kept
B6: phyBN^Y276H (1‒908) (domain or fragment, Arabidopsis, UniProt P14713 1-908, looked up)
chain: MVSGVGGSGGGRGGGRGGEEEPSSSHTPNNRRGGEQAQSSGTKSLRPRSNTESMSKAIQQYTVDARLHAVFEQSGESGKSFDYSQSLKTTTYGSSVPEQQITAYLSRIQRGGYIQPFGCMIAVDESSFRIIGYSENAREMLGIMPQSVPTLEKPEILAMGTDVRSLFTSSSSILLERAFVAREITLLNPVWIHSKNTGKPFYAILHRIDVGVVIDLEPARTEDPALSIAGAVQSQKLAVRAISQLQALPGGDIKLLCDTVVESVRDLTGYDRVMVHKFHEDEHGEVVAESKRDDLEPYIGLHYPATDIPQASRFLFKQNRVRMIVDCNATPVLVVQDDRLTQSMCLVGSTLRAPHGCHSQYMANMGSIASLAMAVIINGNEDDGSNVASGRSSMRLWGLVVCHHTSSRCIPFPLRYACEFLMQAFGLQLNMELQLALQMSEKRVLRTQTLLCDMLLRDSPAGIVTQSPSIMDLVKCDGAAFLYHGKYYPLGVAPSEVQIKDVVEWLLANHADSTGLSTDSLGDAGYPGAAALGDAVCGMAVAYITKRDFLFWFRSHTAKEIKWGGAKHHPEDKDDGQRMHPRSSFQAFLEVVKSRSQPWETAEMDAIHSLQLILRDSFKESEAAMNSKVVDGVVQPCRDMAGEQGIDELGAVAREMVRLIETATVPIFAVDAGGCINGWNAKIAELTGLSVEEAMGKSLVSDLIYKENEATVNKLLSRALRGDEEKNVEVKLKTFSPELQGKAVFVVVNACSSKDYLNNIVGVCFVGQDVTSQKIVMDKFINIQGDYKAIVHSPNPLIPPIFAADENTCCLEWNMAMEKLTGWSRSEVIGKMIVGEVFGSCCMLKGPDALTKFMIVLHNAIGGQDTDKFPFPFFDRNGKFVQALLTANKRVSLEGKVIGAFCFLQIPS
modifications: PΦB chromophore covalently bound
notes: Arabidopsis phytochrome B, residues 1-908, with Y276H; also called HKRD-truncated phyBN^Y276H; truncated phyBN^Y276H (M1‒S908); source: E. coli BL21(DE3), co-expressed with HO1 and HY2, purified; not shown: 3× Flag, N-terminal, kept

Experiments:
[1] = target: PIF6β (1‒182) (Arabidopsis); assay: cryo-EM structure; phyB and PIF6β mixed ~1:1.5, on ice under red light (665 nm, 800 μmol m^-2 s^-1), SEC in 25 mM HEPES pH 7.8, 250 mM KCl, 10 mM DTT, 1 mM EDTA; irradiated with red light 20 min before freezing
[2] = target: phytochrome B (phyB), full length (1‒1172) (Arabidopsis) (UniProt P14713)
[3] = target: the molecule itself; assay: cryo-EM structure; phyB and PIF6β mixed ~1:1.5, on ice under red light (665 nm, 800 μmol m^-2 s^-1), SEC in 25 mM HEPES pH 7.8, 250 mM KCl, 10 mM DTT, 1 mM EDTA; irradiated with red light 20 min before freezing
[4] = target: the molecule itself; assay: cross-linking; thiol-directed cross-linking with 1 mM M2M, ~2 μM protein, on ice 30 min, under red light (665 nm, 767 μmol m^-2 s^-1); 25 mM Tris-HCl pH 8.0, 150 mM NaCl; reversed by DTT; more cross-linked band with the PIF6 fragment 13-100
[5] = target: PIF6β (1‒182) (Arabidopsis); assay: cryo-EM structure; phyB^Y276H or phyBN^Y276H mixed with PIF6β ~1:1.5; full-length complex prepared in the dark; SEC on Superose 6 Increase before freezing
[6] = target: the molecule itself; assay: as above
phyB^Y276H, full length = target: B4; assay: pull-down; StrepII-tagged PIF6 forms or PIFNs held on Strep-Tactin Sepharose, 3× Flag-phyB or phyB^Y276H in the mixture; in the dark, 4 °C, 2 h; buffer E (100 mM Tris-HCl pH 8.0, 150 mM NaCl, 1 mM EDTA); SDS-PAGE with Coomassie and zinc-induced fluorescence; details: both partners purified

phytochrome B (phyB), full length (1‒1172) (from UniProt P14713 1-1172) (receptor)
stoichiometry N (phyB per PIF6β) [1]: 2

PIF6β (1‒182) (natural protein)
Pfr→Pr thermal reversion at 25 °C: amount of phyB-Pfr remaining after 400 min with PIF6β against phyB alone [2]: 8 fold

B1
binding result [3]: binds

B2
binding result [4]: binds

B3
binding result [4]: binds

B4
stoichiometry N (phyB per PIF6β) [5]: 2
binding result [6]: binds

B5
binding result (phyB^Y276H, full length): binds

B6
binding result [6]: binds
